Assay results published in publication PMC9023278.

Molecular target: T1, EnrR (crystal) (Edwardsiella piscicida EIB202, UniProt A0AAQ3C0I8 1-90)
T1 sequence: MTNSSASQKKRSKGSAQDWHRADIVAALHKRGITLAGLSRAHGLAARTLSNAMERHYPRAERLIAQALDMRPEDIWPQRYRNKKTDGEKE
Experiment: X-ray crystallography

B1: DNA1 (dsDNA)
DNA 1: CGAAATATCTATAGATATTTCG
DNA 2: CGAAATATCTATAGATATTTCG
binding result: binds
